Experimental data published in patent US20130123201A1, “MODULATION OF CYTOKINE-INDUCED CHRONIC INFLAMMATORY RESPONSES” (UNIVERSITY OF MANITOBA, priority 2010, published 2013).

Target: TNF-receptor-1 (TNF-R1) (human) (UniProt P19438)
Assay: cell-based or functional assay

Chain of TNF-receptor-1 (TNF-R1) (human) (P19438 30-455): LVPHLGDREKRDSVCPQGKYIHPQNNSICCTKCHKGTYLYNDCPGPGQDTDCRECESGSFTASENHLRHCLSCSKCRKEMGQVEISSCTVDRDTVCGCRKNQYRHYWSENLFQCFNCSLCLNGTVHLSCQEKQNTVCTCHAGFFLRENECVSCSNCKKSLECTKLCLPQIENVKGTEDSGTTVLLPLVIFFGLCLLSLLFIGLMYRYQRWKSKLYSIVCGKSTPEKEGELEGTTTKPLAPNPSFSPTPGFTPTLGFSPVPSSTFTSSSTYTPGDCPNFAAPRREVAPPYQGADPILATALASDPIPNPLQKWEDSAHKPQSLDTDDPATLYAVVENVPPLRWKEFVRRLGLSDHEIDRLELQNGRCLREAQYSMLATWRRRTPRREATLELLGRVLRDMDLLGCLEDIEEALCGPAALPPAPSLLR

Q: How did the Relative fold change in phosphorylation of the TNF-R1 S274 array peptide (kinome profiling, THP-1 cells, 20 ng/mL IL-32, 15 min) turn out when “Recombinant human cytokine IL-32γ (from UniProt P24001 31-234) (ligand)” was run?
A: 4.7 fold
